From the RNAGym collection of RNA variant scans (doi:10.1073/pnas.2313332121)
Fewer inactive variants are shown than the library holds.

B1: TPR 5TU (parent)
chain: GGAUCUUCUCGAUCUAACAAAAAAGACAAAUCUGCCACAAAGCUUGAGAGCAUCUUCGGAUGCAGAGGCGGCAGCCUUCGGUGGCGCGAUAGCGCCAACGUUCUCAACUAUGACACGCAAAACGCGUGCUCCGUUGAAUGGAGUUUAUCAUG

Variants of: B1
Assay: polymerase ribozyme fitness, log enrichment relative to wild type (log ratio); higher = more active; in vitro selection for triplet polymerase activity
How it was run: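 To select mutant libraries of each subunit of a heterodimeric triplet polymerase ribozyme, built by PCR and transcribed, each was annealed with a biotinylated primer, partner subunit and triplets, then incubated frozen at −7 °C. Extended constructs were gel-excised, captured on streptavidin beads and amplified by RT-PCR, in one round carried out in triplicate. Illumina sequencing of input and output libraries kept genotypes with ≥10 input reads and ≥1 read per output. Fitness is the base-2 logarithm of genotype enrichment relative to wild-type enrichment, from inverse-variance-weighted replicate averages.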

Row | Variant | polymerase ribozyme fitness (log ratio)
1 | A47U A60U C95U G136A | -1.58
2 | A47C C54G | -1.14
3 | G46C C54U | -0.821
4 | G46C G83C G88C A97G | ≤ -4.2
5 | A49C C103G A115G | ≤ -4.2
6 | A47G U53C U134G | -3.45
7 | A49C G50A G59U C69G C93U C99U U111G A150U | ≤ -4.2
8 | G46A | -0.076
9 | G46U | -0.0995
10 | G46C | -0.9
11 | A47C U56C C93U A106C | -4.09
12 | A47C C87A C99U G136U G141C | ≤ -4.2
13 | G48C A89C | -0.506
14 | A47C U148A | -3.16
15 | A47C U148G | -3.89
16 | A47C G50A G92U | -1.37
17 | A47C G83A A122C | -1.08
18 | A47U C93A | -2.17
19 | G48C G68A C79U C99A | ≤ -4.2
20 | G46A G86A C87G U104G C116U C149U | ≤ -4.2
21 | A49C C75A G86U G143C | -4.19

Row | Variant | polymerase ribozyme fitness (log ratio)
22 | U45C G50U C57G C87G A137C C149A | ≤ -4.2
23 | G46A G88U C132U | ≤ -4.2
24 | G48U G86C | -3.31
25 | G46U U55G C76A A89G A106U | ≤ -4.2
26 | A47C G50A | -1.47
27 | A47C G58U C99A | -2.46
28 | A47C G83A G92U C108U | ≤ -4.2
29 | A47U G50A C87G C105G C114U C129U | ≤ -4.2
30 | G48C G58U C105G C114G U135C | ≤ -4.2
31 | G48C G84A | -3.2
32 | G46A C125A U134C | -0.78
33 | G46A C75U C85A A106G | ≤ -4.2
34 | G46U C63G G94U U101G A137G A147C | ≤ -4.2
35 | A49C A52G G81A C87U U102C C114G A150G | ≤ -4.2
36 | G48C C51U C54U C57U U90C A138G U144A | ≤ -4.2
37 | A47U U56A C85A U104A | -2.77
38 | A47C C79U G83A C87U C99A C103U | -4.14
39 | A47C C69G G83A A119G U146C | -2.18
40 | A47C C85G C96A A98G | ≤ -4.2
41 | G48U C93U C95A A97G A98U G117C | -3.43
42 | G48U C93A | -2.5

Row | Variant | polymerase ribozyme fitness (log ratio)
43 | G46C C85U | -1.16
44 | U45A C118A | -3.79
45 | A47G U145G | -0.0566
46 | U45A G84A U148A | ≤ -4.2
47 | A49C C76G C95U C114A G143U | ≤ -4.2
48 | A47G C69U | -1.14
49 | A47G C69G | -1.95
50 | A47C U56A | -0.282
51 | A47C U104G G124U | -0.000534
52 | A47U U61G U134A | -3.8
53 | G48C C57A C72G | ≤ -4.2
54 | G48C A52C C85G G92C A119U G126A A138U | ≤ -4.2
55 | G46C G80C A97C U144G | ≤ -4.2
56 | A47G C93U | -0.775
57 | A47U G83A U101C G117U | -0.198
58 | G48A C85U C114U A122C | -2.44
59 | G48C C75G C87G A91C C103G U134G U135C | ≤ -4.2
60 | A47U G59A G124U | -0.07
61 | A47G U55A A89C C95U U146A | -1.95
62 | G48U U135C G143C | -3.78
63 | G46A C93U C129G | ≤ -4.2

Row | Variant | polymerase ribozyme fitness (log ratio)
64 | A47U G59A C96G | -1.05
65 | A47G U55A G71U C85G C95U | ≤ -4.2
66 | A47U A64G A138C U144C | ≤ -4.2
67 | A47U G83C A98U | -0.618
68 | U45C A49C G70C G83C A137C U144C C149U | ≤ -4.2
69 | G46A A49G G50A A52U C96U C123G U139A G143C | ≤ -4.2
70 | G46A G62U | -4.09
71 | A47C U53C C95A U104G A119U G136U | -3.11
72 | A49C C99U | ≤ -4.2
73 | G48C U134A | -1.01
74 | A47U A64G C93A | ≤ -4.2
75 | A49C C96U | -3.23
76 | U45G C93U G141C | ≤ -4.2
77 | A47C A91C C105G A120G G143U | ≤ -4.2
78 | G46A A49C G71U G86A C96U A97U | ≤ -4.2
79 | U45G U55G C76U G84A | -3.76
80 | U45G U56A G88A C93G A119G G143U | ≤ -4.2
81 | G46A G50C U55A U56A C87U G88U C125A G136A | ≤ -4.2
82 | A49C C54U G84A C103U C116G U130G | ≤ -4.2
83 | A47G A91G | -2.73
